According to patent US7790697B2, “Compositions and methods for inhibiting the synthesis or expression of MMP-1” (Trustees of Dartmouth College, priority 2004, dated 2010):

Tests used:
[1] = system: MMP-2 mRNA; test: Specificity qRT-PCR, MMP-2 mRNA in stable MDA-231 cells; assay type: cell-based, human; details: stable MDA-231 cell lines, 24 hour serum-free; group average ± S.D.; P=0.3 vs empty vector
Source text: (§1) RNA Isolation and Real-Time RT-PCR. […] Real-Time PCR Primer Sequences. […] ID NO:7; MMP-1 reverse [NT] ID NO:8; MMP-2 forward [NT] ID NO:9; MMP-2 reverse [NT] ID NO:10; MMP-9 forward [NT] ID NO:11; MMP-9 reverse [NT] ID NO:12; MMP-13 forward [NT], SEQ ID NO:13; MMP-13 reverse [NT] ID NO:14; MMP-14 forward [NT] ID NO:15; MMP-14 reverse [NT] ID NO:16; GAPDH forward [NT] ID NO:17; GAPDH reverse [NT] ID NO:18; eGFP forward [NT] ID NO:19; eGFP reverse [NT] ID NO:20. Real-Time PCR Standards.

[2] = system: MMP-9 mRNA; test: Specificity qRT-PCR, MMP-9 mRNA in stable MDA-231 cells; assay type: cell-based, human; details: stable MDA-231 cell lines, 24 hour serum-free; group average ± S.D.; P=0.1 vs empty vector
Source text: as §1

[3] = system: MDA-231 cells in type I collagen gel; test: In vitro collagen gel destruction assay; assay type: cell-based; details: MDA-231 cells producing the shRNA
Procedure: In vitro Collagen Gel Destruction Assay. Collagen preparations were carried out on ice to prevent premature jelling. A solution of purified type I bovine collagen (Cohesion Technologies, Palo Alto, Calif.) was neutralized with a sterile 10× phosphate-buffered saline (pH 7.4), and 0.1 M NaOH. The solution of neutralized collagen (2 mg/mL) was mixed with an equivalent volume of cells suspended in serum free DMEM to yield a final concentration of 2×10^5 cells/mL in 1 mg/mL fibrillar collagen, and 1 mL of the collagen/cell mixture was added to each well of a six-well plate. After approximately 1 hour, the collagen jelled, and 1 mL of serum-free media was added on top of the gel. For some experiments, 25 μM ILOMASTAT® (CHEMICON®, Temecula, Calif.), 50 U/mL aprotinin (Sigma, St. Louis, Mo.), 1 μg/mL neutralizing MMP-1 antibody (MMP-1 ab-5; ONCOGENE™ Research Products, San Diego, Calif.), 1 μg/mL monoclonal FLAG® antibody (Sigma, St. Louis, Mo.), or 1% DMSO were added to the collagen before it jelled. After 36 hours of incubation at 37° C. the medium was removed from the top of collagen gels and weighed. The weight of media added at the start of the 37° C. incubation (1 gram) was subtracted from the total media weights to reveal the amount of media liberated by collagen gel destruction.
An in vitro collagen destruction assay was developed to determine whether the MMP-1 levels in MDA-231 cells with the empty vector were functionally capable of degrading a collagen matrix, and whether the shRNA-mediated reduction in MMP-1 was sufficient to change the invasive behavior of the cells. MDA-231 cells harboring either the empty vector or the MMP-1 shRNA were embedded in a solution of type I collagen (1 mL). The collagen was allowed to solidify at 37° C., and 1 mL of serum-free medium was layered on top of each gel. After 36 hours at 37° C., the medium was removed from each well and photographs were taken. No collagen was visible in wells containing MDA-231 cells with the empty vector. […] The medium removed from each well was weighed to quantitate the amount of medium liberated as the gel was destroyed. After 36 hours, approximately 1 mL (0.8±0.06 grams) of medium was liberated from the collagen gels containing the MDA-231 cells with the empty vector. […] Conversely, no medium (−0.01±0.03 grams) was liberated from collagen gels containing MDA-231 cells producing the MMP-1 shRNA. The slight decrease in the volume of medium recovered may be due to evaporation of the medium during the incubation period.

[4] = system: MDA-231 cells; test: Tumorigenesis studies in nude mice, mammary fat pad injection of MDA-231 cells; assay type: in vivo
Procedure: Tumorigenesis Studies in Mice. Pooled MDA-231 stable cell lines containing either the empty vector or the MMP-1 shRNA (1×10^6 cells/100 μL HBSS) were injected into the 4th inguinal fat pad of twenty-one female, 6-week-old nude mice (NU/NU; Charles River Laboratories, Wilmington, Mass.) using 28 gauge×½″ single-use insulin needles. Mice were examined weekly until tumors were grossly apparent, then they were examined several times per week. Each tumor was measured twice with Vernier calipers, and tumor volume was calculated using the formula: 4/3πr^3. When the two measurements differed, the smaller radius measurement was squared and multiplied by the largest radius measurement. This number was then substituted for the r^3 portion of the formula.
The in vivo efficacy of the shRNA-mediated reduction of MMP-1 in the MDA-231 cells was analyzed. Nude mice were injected in the fourth inguinal mammary fat pad with MDA-231 cells containing either the empty vector or the MMP-1 shRNA. At week 6, tumors began to appear in the inguinal pad of several mice and at week 11, the mice were sacrificed.

B1: MMP-1 shRNA: Vector-expressed small hairpin RNA, SEQ ID NO:1 (sense) and SEQ ID NO:2 (antisense), specific to bases 234-252 of MMP-1 mRNA (nucleic acid)
sense: GATCCCCACCAGATGCTGAAACCCTGTTCAAGAGACAGGGTTTCAGCATCTGGTTTTTTGGAAA
antisense: AGCTTTTCCAAAAAACCAGATGCTGAAACCCTGTCTCTTGAACAGGGTTTCAGCATCTGGTGGG
modifications: the letters are possibly those of the target site
[1]
  MMP-2 mRNA level: 8.8 ± 7.8 copies of the target gene/pg GAPDH
[2]
  MMP-9 mRNA level: 197.3 ± 106 copies of the target gene/pg GAPDH
[3]; 36 hours
  appearance of collagen gel: appeared to be intact
[3]; 36 hours at 37° C.
  medium liberated from collagen gels: −0.01±0.03 grams
[3]; as long as five days
  collagen gel destruction: no collagen gel destruction
[4]; week 11, mean±s.e., n=10, p=0.027 vs empty vector
  average tumor size at time of sacrifice: 272±117 mm^3
[4]; week 11, n=23, p=0.11 vs empty vector (57%), Fisher's exact test
  frequency of tumor formation: 36%
